Reference: the nanobody polyreactivity screen of Harvey et al. (2022)

Assay: yeast display, Sf9 membrane polyspecificity reagent, FACS + sequencing; frameworks hold sequencing errors
How it was run: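 A synthetic nanobody library was expressed on Saccharomyces cerevisiae BJ5465 by galactose induction for 36–48 hours. The library was stained for 1 hour at 4 °C with 10% biotinylated, detergent-solubilized Sf9 membrane reagent and enriched with streptavidin microbeads before FACS. Low and high (top ~1%) gates were set on anti-HA fluorescence for expression and streptavidin fluorescence for reagent binding, and each polyreactivity label reflects the gate of origin.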

Row | Sequence | polyreactivity (PSR sort gate)
1 | QVQLVESGGGLVQAGGSLRLSCATSGFIFSLYAMGWYRQAPGKERELVAAINWNGGRTYYADSVKGRFTISRDNAKNTVYLQMDSLKPEDTAVYYCATRSGSYSYPAVGGWGLGYWGQGTQVTVSS | high polyreactivity
2 | QVQLVESGGGLVQAGGSLRLSRAASGFTWSYAMGWYRQAPGKERELVATISDGVSTNYADSVKGRFTISRDNAKNTVYLQRNSLKPEDTAVYYCAAEIPRRWASFATLWYDYWGQGTQVTVSS | low polyreactivity
3 | QVQLVESGGGLVQAGGSLRLSCAATGSIFNVNAMGWYRQAPGKERELVAAISSGGDTYYADSVKGRFTISRDNAKNTVYIQMNSLQPEDTAVYYCAKQSYTLYTLLYDYWGQGTQVTVSS | low polyreactivity
4 | QVQLVESGGGLVQAGGSLRLICAASGSIFGYNAMGWYRQAPGKERELVAAIRISTDNTYYADSVKGRFTISRDNAKNTVYLQMNSLKPEDTAVYYCAASSQTQYGDNYWGQGTQVTVSS | high polyreactivity
5 | QVQLVESGGGLVQAGGSLRLSCAASGSIFGSNMGWYRQAPGKERELVAAISSRGGRTYYADSVKGRFTISRVNAKNTVYLQMNSQKPEDTAVYYCATRTFRGGRGYEYWGQGTQVTVSS | high polyreactivity
6 | QVQLEESGGGLVQAGGSLRLSCAASGIIFRLYGMGWYRQAPGKEREFVATITWRGGRTNYADSVKGRFTISRDNAKNTVYLQMNSLTPEDTAVYYCANVVRYARSNEYDSSGQGTQVTVSS | low polyreactivity
7 | QVQLVESGGGLVQAGGSLRLSCAASGSIFAQYTMGWYRQAPGKERELVAVISFRGGSTYYADSVKGRFTISRDNAKNTVYLQMNSLKPEDTAVYYCATVGTYPGYGEFDYWGQGTQVTVSS | low polyreactivity
8 | QVQLVESGGGLVQAGGSLRLSCAASGRILGNNVMGWYRQAPGKERELVDAITSSGGRTYYADSVKGRFTISRDNAKNTVYLQMNSLKPEDTAVYYCAAERRYYGKFNYWGQGTQVTVSS | high polyreactivity
9 | QVQLVESRGGLVQAGGSLRLSCAASGRIFGYYAMGWYRQAPGKERELVATIRGGGSTNYADSVKGRFTISRDNAKNTVYLQMNSLKPEDTAVYYCAKPGAKWRGFDYWGQGTQVTVSS | low polyreactivity
10 | QVQLVESGGGLVQAGGSLRLSCAASGLIFYDNMGWYRQAPGKERELVAAISSSGGSTSYADSVKGRFTISRDNAKKTVYLQMNSLKPEDTAVYYCAAKWSHVRDGPKYDYWGQGTQVTVSS | low polyreactivity
11 | QVQLVESGGGLVQAGGSLRLTCAASGRIFDTYAMVWYRQAPGKEMELVAAISRSGGRTYYADSVKGRFTISRDNANNTVYLQMNSLKPEDTAVYYCAARAYPYYWTGQKQSRFGYWGQGTQVTVSS | high polyreactivity
12 | QVQLVESGGGLVQAGGSLRLSCAASGFIFHLYSLGWYRQAPGKERELVAVISGGGSTYYADSVKGRFTISRDNAKNTVYLQMNSLKPEDTAVYYCNVGRYYRYATGGDYWGQGTQVTVSS | high polyreactivity
13 | QVQLVESGGGLVQAGGSLRISCAASGFTFNANAMGWYRQAPGNERELVAAISLSGGRTYYADSVKGRFTISRDNAKNTVYLQMNSLKPEDTAVYYCAASPDGSFRRFSRVVSGDYWGQGTQVTVSS | high polyreactivity
14 | QVQLVESGGGLVQAGGRLRLSCAASGRIFFYYAMGWYRQAPGKERELVAAITSGGNTNYADSVKGRFTISRDNAKNTVYLQMNSLKPEDTAVYYCNKDLYADGQYNYDYWGQGTQVTVSS | low polyreactivity
15 | QVQLVESGGGLVQAGGSLRLSCAASGSILIGNAMGWYRQAPGKERELVAGISSDVSTNYADSVKGRFTISRDNAKNTVYLQMNSLNPEDTAVYYCNKDAGPFQEHLYSWGYDSWGQGTQVTVSS | low polyreactivity
16 | QVQLVESGVGLVQAGGSLRLSCAASGRNFGTNAIGWYRPAPGKERELVAAISSSGGSTYYADSVKGRFTISRDNAKNTVYLQMNSLKPEDTAVYYCAKGWHRGVGFGYWGQGTEVTVSS | high polyreactivity
17 | QVQLVESGGGLVQAGGSLRLSCAASGITFYLYTMGWYRQAPGKERELVAAISWRGGGTYYADSVKGRFTISRDNAKNTVYLQMNSLKPEDTAVYYCATVRTYARNDYWGQGTQVTVSS | high polyreactivity
18 | QVQLVESGGGLVQAGGTLRLSCAASGFTFAVYAMGWYRQAPGKERELVAAISRSGTRTYYADSVKGRFTISRDNSKNPVYIQMNSLKPEDTAVYYCAADKYRNGYDYWGQGTQVTVSS | low polyreactivity
19 | QVQLVESGGGLVQAGGSLRLSCAASGSIFDVYGMGWYRQAPGKEREFVADITSRGTRTYYADSVKGRFTISRDNAKNTVYLQMNSLKPEDTAVYYCNADRYTAVRAYDYWGQGTQVTVSS | low polyreactivity
20 | QVQLVESGGGLVQAGGSLRLSCAASGNTFRRYAMGWYRQAPGKERELVAAITGGTRTYYADSVKGRFTISRDNAKNTVYLQMISLKPEDTAVYYCAARLTSRSYRYDYWGQGTQVTVSS | high polyreactivity
21 | QVQLVESGGGLVQAGGSLRLSCAASGFTFYVYAMGWYRQAPGKERELVASISRGGSTYYADSVKGRFTISRDNAKNTVYLQINSLKPEDTAVYYCNRVPYVSSSKVRYSNGFDYWGQGTQVTVSS | low polyreactivity
22 | QVQLVESGGGLVQAGGSLRLSCAASGNIFPWYAMGWYRQAPGKERELVASITVSGGRTYYADSVKGRFTISRDNAKNTVYLQMNSLKPEDTAVYYCNKYLVWYVPGAYNSWGQGTQVTVSS | high polyreactivity
23 | QVQLVESGGALVQAGGSLRLSCAASGSTFEDYAMRSSRQAPGKARELVAAISHIGGSTYYADSVKGRFTISRDNAKNTVYLQMNSLKPEDTAVYYCAKGVYSDLGYWAQGTQVTVSS | low polyreactivity
24 | QVQLVESGGGLVQAGGSLRLSCAASGLTFKFNAMGWYRQAPGKERELVAAITYSGGSTYYADSVKGRFTISRDNAKNTVYLQMNSLKPDDTAVYYCAAEGWWGYYRYNYWGQGTQVTVSS | high polyreactivity
25 | QVQLVESGGGIVQAGGSLLLSCPASGRIFGVYAMGWYRQAPGKERELVAGINGGDSTYYADSVKGRFTISRDNAKNTVYLQMNSLKPEDTAVYYCAAEADESGSNYDYWGQGSQVTVSS | low polyreactivity
26 | QVQLVESGGGLVQAGGSLRLSCAASGNIFSRYAMGWYRQAPGKERELVASISRGGRTNYADSVKGRFTISRDNAKNTVYLQMNSLKPEDTAVYYCAKGGKGYWHPTGPYPFNYWGQGTQVTVSS | high polyreactivity
27 | QVQLVESGGGLVQAGGSLRLSCAASGSIFHYYAMGWYRQAPGKERELVAAISWSGGRTNYADSVKGRFTISRDNAKNTVYLQMKSLKPEDTAVYYCAAGNSFSDRGHRVYFQYYYWGQGTLVTVSS | high polyreactivity
28 | QVQLVESGGGLVQAGGSLRLSCAASGRIFLWYAMGWYRQAPGKERELVAANSSNGGSTRYADSVKGRFTISRDNAKNTVYLQMNSLKPEDTAVYYCNADVHWNRYPYGGNGYGYWGQGTQVTVSS | low polyreactivity
29 | QVHLVDSGGGLVQAGGSLRLSCAASGRTFGRNAMGWYRQAPGKERELVAAISLRGGRTYYADSVKGRFTISRDNAKNTVYLQMNSLKPEDTAVYYCAAYGYRDYYFWGQGTQVTVSS | high polyreactivity
30 | QVQLVESGGGLVQAGGSLRLSCAASGRIFPYYAMGWYRQAPGKDRELVAAISWSGGRTYYADSVKGRFTISRDYAKNTVYLQMNSLKPDDNAVYFCAAGHSYRPYYYYGEYDYWGQGTQVTVSS | high polyreactivity
